Measurements reported in PMC7887213 (Nature Communications, 2021).

What was measured:
Details in all cases: both partners purified
NPNA3 peptide = biological target: T1, NPNA3 peptide (Plasmodium falciparum (synthetic CSP …)); experiment: crystal structure; Fab at 10 mg/ml mixed with peptide at 1:5 molar ratio of Fab to peptide; sitting drop vapor diffusion
T1 construct: source: synthetic peptide, bought: Innopep Inc

[1] = biological target: T2, NPNA6 peptide (Ac-[residues removed]-NH2) (Plasmodium falciparum (synthetic CSP …); experiment: ITC; peptide in the syringe, Fab (~10 uM) in the cell; DPBS; 25 C; single-site binding model; triplicate; apparent affinity
T2 construct: source: synthetic peptide, bought: Innopep Inc

[2] = biological target: T3, NPNA4 peptide (Ac-[residues removed]-NH2) (Plasmodium falciparum (synthetic CSP …); experiment: as above
T3 construct: source: synthetic peptide, bought: Innopep Inc

[3] = biological target: T4, NPNA2 peptide (Ac-[residues removed]-NH2) (Plasmodium falciparum (synthetic CSP …); experiment: crystal structure; Fab at 10 mg/ml mixed with peptide at 1:5 molar ratio of Fab to peptide; sitting drop vapor diffusion
T4 construct: source: synthetic peptide, bought: Innopep Inc

B1: Fab399 (Fab, V domains shown)
VH: EVQLVESGGGLVQPGRSLRLSCTTSGFTFGDYAMSWFRQAPGKGLEWVGFIRSKGFGGTAEYAAFVKGRFTISRDDSRSIAYLQMTSLKPEDTAVYYCSRVGVVIATAVYWGQGTLVTVSS
VL: DILMTQTPLSLSVTPGQPASISCKSSQSLLDNDGKTYLYWYLQKPGQSPQLLIYEVSNRFSGVPERFSGSGSGTDFTLKIRRVEAEDVGVYYCMQRIDLPWTFGQGTKVEIK
notes: also called mAb399; source: ExpiCHO cells, purified (HiTrap Protein G, SEC)
In the case of B1, the binding result (NPNA3 peptide) is reported as “binds”, the Kd [1] is reported as 0.094 µM and the Kd [2] is reported as 5.92 µM.

B2: Fab395 with elbow mutations in the heavy chain (crystallised form) (Fab, V domains shown)
VH: QEQLVESGGGVVQPGRSLRLSCAAASEFCFSCYGMHWVRQAPGKGLEWVAVIWHDGSNQHFADSVKGRFTISRDNSKNIMYLQMNSLRAEDTAVYYCASATRYDILTGAFDYWGQGTLVTVVS
VL: DIQMTQSPSTLSASVGDRVTITCRASQSISTWLAWYQQKPGKAPKLLIYKASSLESGVPSRFSGSGSGTEFTLTISSLQPDDFATYYCQQYSRYWTFGQGTKVEIK
notes: source: ExpiCHO cells, purified (HiTrap Protein G, SEC)
B2: binds [3].

B3: Fab366 with elbow mutations in the heavy chain (crystallised form) (Fab, V domains shown)
VH: QVQLVQSGAEVKKPGASARVSCKASGYTLTDFYLHWVRQAPGQGLEWMGWLNPHSGGTNYAQKFLGRVSMTRDTSISTAYMELNKLISDDTAVYFCVRSDQEALRGAFDIWGQGTMVFVVS
VL: DIQMTQSPSSLSASVGDTVTITCRASQSINDYLNWYQQKPGKAPKLLIYATSSLHSGVPSRFSGSGFGTDFTLTISSLQPEDSATYLCQQSHSLWTFGQGTKVEVK
notes: as for B2
B3: binds (NPNA3 peptide).
